Source: paper PMC10030467 (Nature Communications, 2023)
Where a chain is given by its changes, count along the chain named. Names and notes keep the numbering of the source. Values joined by “and” are separate entries in the source; they are usually repeats but may differ in a detail not shown here. Equal entries are not always repeated.

Key:
[1] = target: KAP1/TRIM28 (Homo sapiens) (UniProt Q13263); conditions: cited from earlier work
[2] = target: T1, TRIM72 (full-length; also MG53) (Homo sapiens, UniProt Q6ZMU5); experiment: microscale thermophoresis; assay type: binding; conditions: 50 mM Tris pH 8.0, 80 mM NaCl, 0.05% Tween 20, 0.3 mM TCEP; room temperature; GFP-labelled protein
T1 construct: full-length residues 2-477; E. coli Rosetta (DE3), His-Sumo cut by Ulp1; GFP-labelled for MST, FLAG-tagged for PIP-Strips; dimer
T1 sequence (Q6ZMU5 2-477): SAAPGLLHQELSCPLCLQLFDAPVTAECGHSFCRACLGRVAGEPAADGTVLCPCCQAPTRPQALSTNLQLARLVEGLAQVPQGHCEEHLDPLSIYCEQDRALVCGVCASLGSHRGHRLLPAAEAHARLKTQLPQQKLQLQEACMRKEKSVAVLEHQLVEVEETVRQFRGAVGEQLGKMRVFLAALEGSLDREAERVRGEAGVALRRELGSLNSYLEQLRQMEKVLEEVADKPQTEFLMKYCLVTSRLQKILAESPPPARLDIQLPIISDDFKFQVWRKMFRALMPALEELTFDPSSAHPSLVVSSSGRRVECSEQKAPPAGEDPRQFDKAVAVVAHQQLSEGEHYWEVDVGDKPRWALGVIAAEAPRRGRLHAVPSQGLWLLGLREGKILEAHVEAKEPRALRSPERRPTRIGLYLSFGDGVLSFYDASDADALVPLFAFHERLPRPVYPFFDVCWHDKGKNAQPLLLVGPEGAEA

[3] = target: T2, SPRY domain (Homo sapiens, UniProt Q6ZMU5); experiment: microscale thermophoresis; assay type: binding; conditions: 50 mM Tris pH 8.0, 80 mM NaCl, 0.05% Tween 20, 0.3 mM TCEP; room temperature; GFP-labelled protein
T2 construct: gene TRIM72; SPRY domain, residues 278-477; E. coli; GFP-labelled for MST; monomer
T2 sequence (Q6ZMU5 278-477): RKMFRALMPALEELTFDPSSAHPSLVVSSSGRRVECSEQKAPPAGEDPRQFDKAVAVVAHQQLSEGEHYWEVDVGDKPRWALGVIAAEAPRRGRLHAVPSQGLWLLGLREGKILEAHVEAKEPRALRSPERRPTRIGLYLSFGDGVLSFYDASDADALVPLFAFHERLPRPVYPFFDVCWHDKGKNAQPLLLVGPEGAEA

[4] = target: T3, coiled-coil domain alone (121-277) (Homo sapiens, UniProt Q6ZMU5); experiment: microscale thermophoresis; assay type: binding; conditions: 50 mM Tris pH 8.0, 80 mM NaCl, 0.05% Tween 20, 0.3 mM TCEP; room temperature; GFP-labelled protein
T3 construct: gene TRIM72; coiled-coil domain, residues 121-277; E. coli; GFP-labelled for MST
T3 sequence (Q6ZMU5 121-277): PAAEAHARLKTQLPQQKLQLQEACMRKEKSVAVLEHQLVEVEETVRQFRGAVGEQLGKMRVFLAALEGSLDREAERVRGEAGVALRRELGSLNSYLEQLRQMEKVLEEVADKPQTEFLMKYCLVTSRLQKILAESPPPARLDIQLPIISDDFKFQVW

[5] = target: T4, CC-SPRY (Homo sapiens, UniProt Q6ZMU5); experiment: microscale thermophoresis; assay type: binding; conditions: 50 mM Tris pH 8.0, 80 mM NaCl, 0.05% Tween 20, 0.3 mM TCEP; room temperature; GFP-labelled protein
T4 construct: gene TRIM72; coiled-coil plus SPRY; E. coli; GFP-labelled for MST; dimer
T4 sequence (Q6ZMU5 122-477): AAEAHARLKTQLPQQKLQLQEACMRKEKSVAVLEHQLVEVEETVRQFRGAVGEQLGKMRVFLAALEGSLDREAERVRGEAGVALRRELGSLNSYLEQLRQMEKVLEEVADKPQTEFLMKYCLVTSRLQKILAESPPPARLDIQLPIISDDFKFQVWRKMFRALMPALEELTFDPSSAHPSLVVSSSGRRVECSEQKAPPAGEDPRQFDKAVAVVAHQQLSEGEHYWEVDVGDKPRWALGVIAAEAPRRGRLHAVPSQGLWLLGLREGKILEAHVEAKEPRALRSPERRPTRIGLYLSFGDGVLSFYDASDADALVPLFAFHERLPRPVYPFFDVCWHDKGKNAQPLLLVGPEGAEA

[6] = target: T5, TRIM72 (full-length; also MG53) (Homo sapiens, UniProt Q6ZMU5, R169A/R180A/R198A); experiment: microscale thermophoresis; assay type: binding
T5 construct: full-length residues 2-477; E. coli Rosetta (DE3), His-Sumo cut by Ulp1; GFP-labelled for MST, FLAG-tagged for PIP-Strips; dimer
T5 sequence (Q6ZMU5 2-477 R169A/R180A/R198A): T1 sequence (Q6ZMU5 2-477) with R168A, R179A, R197A

[7] = target: the molecule itself; experiment: AUC; sedimentation velocity, increasing protein concentration (1, 2, 10, 20, 50 μM); 20 mM Tris-HCl pH 8.0, 200 mM NaCl, 0.3 mM TCEP, 20 °C; SEDPHAT self-association; dimers to tetramer (and hexamer)
[8] = target: the molecule itself; experiment: AUC; sedimentation velocity, lower protein concentrations of the series 1-50 μM; 20 mM Tris-HCl pH 8.0, 200 mM NaCl, 0.3 mM TCEP, 20 °C; monomers to dimer
[9] = target: the molecule itself; experiment: SEC-MALS; point mutants, 100 μL at 1 mg/mL; Superdex 200 increase, 20 mM Tris-HCl pH 8.0, 200 mM NaCl, 0.3 mM TCEP
[10] = target: the molecule itself; experiment: cross-linking; disulfide bonds by oxidation: about 20 μM protein with 0-0.3% H2O2, 4 °C, 30 min, 20 mM Tris-HCl pH 8.0, 200 mM NaCl, 0.3 mM TCEP; non-reducing PAGE
[11] = target: the molecule itself; experiment: AUC + SEC-MALS; deletion constructs of TRIM72 in solution; 20 mM Tris-HCl pH 8.0, 200 mM NaCl, 0.3 mM TCEP

For KAP1/TRIM28 (from UniProt Q13263), the Kd [1] is given as 10 µM.

In the case of N[C@@H](COP(=O)(O)O)C(=O)O [phospho-L-serine], the Kd [2] is reported as about 10 µM, the Kd [3] is reported as about 4.7 µM and the Kd [4] is reported as about 19.6 µM. The Kd [5] was about 10 µM and the Kd [6] was about 38 µM.

B1: full-length human TRIM72 protein (2-477) (natural protein, UniProt Q6ZMU5-1 2-477, looked up)
chain: T1 sequence (Q6ZMU5 2-477)
notes: TRIM72 (MG53), human, residues 2-477; open reading frame of GenBank NM_001008274.4; A dimer in solution at low concentration; the RING domain is not seen in the crystal structure although the full-length protein was crystallised; also called MG53; Tripartite Motif Protein 72; source: E. coli Rosetta (DE3), purified (nickel column, Source Q, Superdex 200 increase); not shown: His-Sumo, N-terminal, …
In the case of B1, the Kd [7] is reported as about 780 µM, the “stoichiometry N” value [7] is reported as 4 and 6 and the “stoichiometry N” value [8] is reported as 2.

B2: TRIM72 R220E (natural protein, human, UniProt Q6ZMU5-1 2-477, looked up)
chain: T1 sequence (Q6ZMU5 2-477) with R219E
notes: TRIM72, human, residues 2-477, point mutant; source: E. coli Rosetta (DE3), purified; not shown: His-Sumo, N-terminal, cleaved
For B2, the “stoichiometry N” value [9] was 2.

B3: TRIM72 C144S (natural protein, human, UniProt Q6ZMU5-1 2-477, looked up)
chain: T1 sequence (Q6ZMU5 2-477) with C143S
notes: as for B2
B3: binds [10].

B4: TRIM72 C242S (natural protein, human, UniProt Q6ZMU5-1 2-477, looked up)
chain: T1 sequence (Q6ZMU5 2-477) with C241S
notes: as for B2
B4: binds [10].

B5: TRIM72 I95A (natural protein, human, UniProt Q6ZMU5-1 2-477, looked up)
chain: T1 sequence (Q6ZMU5 2-477) with I94A
notes: TRIM72, human, residues 2-477, point mutant in the B-box; also called I95A mutant; source: E. coli Rosetta (DE3), purified; not shown: His-Sumo, N-terminal, cleaved
With B5 the Kd [7] was about 2200 µM.

B6: TRIM72^ΔRING (84-477) (domain or fragment, human, UniProt Q6ZMU5-1 84-477, looked up)
chain: GHCEEHLDPLSIYCEQDRALVCGVCASLGSHRGHRLLPAAEAHARLKTQLPQQKLQLQEACMRKEKSVAVLEHQLVEVEETVRQFRGAVGEQLGKMRVFLAALEGSLDREAERVRGEAGVALRRELGSLNSYLEQLRQMEKVLEEVADKPQTEFLMKYCLVTSRLQKILAESPPPARLDIQLPIISDDFKFQVWRKMFRALMPALEELTFDPSSAHPSLVVSSSGRRVECSEQKAPPAGEDPRQFDKAVAVVAHQQLSEGEHYWEVDVGDKPRWALGVIAAEAPRRGRLHAVPSQGLWLLGLREGKILEAHVEAKEPRALRSPERRPTRIGLYLSFGDGVLSFYDASDADALVPLFAFHERLPRPVYPFFDVCWHDKGKNAQPLLLVGPEGAEA
notes: TRIM72, human, residues 84-477 (B-box, coiled-coil, SPRY); also called RING deletion; source: E. coli Rosetta (DE3), purified; not shown: His-Sumo, N-terminal, cleaved
In the case of B6, the “stoichiometry N” value [11] is reported as 2.

B7: TRIM72^ΔRING-B-box (122-477) (domain or fragment, human, UniProt Q6ZMU5-1 122-477, looked up)
chain: T4 sequence (Q6ZMU5 122-477)
notes: TRIM72, human, residues 122-477 (coiled-coil and SPRY); also called CC-SPRY; source: E. coli Rosetta (DE3), purified; not shown: His-Sumo, N-terminal, cleaved
In the case of B7, the “stoichiometry N” value [11] is reported as 2.

B8: TRIM72^ΔSPRY (2-287) (domain or fragment, human, UniProt Q6ZMU5-1 2-287, looked up)
chain: SAAPGLLHQELSCPLCLQLFDAPVTAECGHSFCRACLGRVAGEPAADGTVLCPCCQAPTRPQALSTNLQLARLVEGLAQVPQGHCEEHLDPLSIYCEQDRALVCGVCASLGSHRGHRLLPAAEAHARLKTQLPQQKLQLQEACMRKEKSVAVLEHQLVEVEETVRQFRGAVGEQLGKMRVFLAALEGSLDREAERVRGEAGVALRRELGSLNSYLEQLRQMEKVLEEVADKPQTEFLMKYCLVTSRLQKILAESPPPARLDIQLPIISDDFKFQVWRKMFRALMPA
notes: TRIM72, human, residues 2-287 (RING, B-box, coiled-coil); source: E. coli Rosetta (DE3), purified; not shown: His-Sumo, N-terminal, cleaved
With B8 the “stoichiometry N” value [11] was 2.
